From patent publication US20160207996A1 (ARGEN X N V, published 2016)

Tests used:
[1] = target: T1, hNav1.7-loopA3-llama Fc fusion (human); assay: binding ELISA of mAb 8A7 on coated loop A3-llama Fc chimeras, OD450
T1 construct: also called hNav1.7-loopA3-llFc; loopA3-llamaFc chimera
T1 chain: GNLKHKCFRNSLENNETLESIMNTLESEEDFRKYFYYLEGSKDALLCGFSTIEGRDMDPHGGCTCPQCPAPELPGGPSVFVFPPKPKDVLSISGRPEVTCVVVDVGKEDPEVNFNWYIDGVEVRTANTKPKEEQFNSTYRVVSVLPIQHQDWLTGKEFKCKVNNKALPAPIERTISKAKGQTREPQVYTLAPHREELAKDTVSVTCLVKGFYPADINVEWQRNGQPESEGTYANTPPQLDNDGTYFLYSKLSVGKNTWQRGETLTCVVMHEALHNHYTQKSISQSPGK

Mouse A3 mut1 = target: T2, Mouse A3 mut1 (mouse-human chimera, UniProt Q62205 269-319); assay: as above
T2 construct: also called mouse A3 mut1 loop; not shown: linker and llama Fc of the A3-llamaFc construct

mouse A3-llamaFc = target: T3, mouse A3-llamaFc (mouse, UniProt Q62205 269-319); assay: as above
T3 construct: also called wild-type mouse A3 loop; not shown: linker and llama Fc of the A3-llamaFc construct
T3 sequence: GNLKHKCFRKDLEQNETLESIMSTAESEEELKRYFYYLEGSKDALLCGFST

[2] = target: human Nav1.7 (full length) (human) (UniProt Q15858); assay: cell-based or functional assay
hNav1.5-loopA3-llFc = target: T4, hNav1.5-loopA3-llFc (human); assay: binding ELISA on coated hNav1.5 loop A3-llama Fc, OD620
T4 construct: also called Nav1.5 extracellular loop A3 llamaFc chimera
T4 chain: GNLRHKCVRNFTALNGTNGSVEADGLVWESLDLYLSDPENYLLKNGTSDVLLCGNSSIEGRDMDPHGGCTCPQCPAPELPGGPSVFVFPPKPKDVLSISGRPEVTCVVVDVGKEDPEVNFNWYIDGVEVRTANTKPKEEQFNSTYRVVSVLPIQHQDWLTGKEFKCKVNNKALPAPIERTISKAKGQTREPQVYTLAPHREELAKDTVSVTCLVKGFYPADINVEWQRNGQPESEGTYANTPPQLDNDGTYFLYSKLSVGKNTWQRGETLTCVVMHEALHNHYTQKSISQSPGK
Description: (§1) The therapeutic potency of an anti-hNav1.7 antibody will highly depend on the lack of binding to other Nay family members. Of particular interest is hNav1.5, which is expressed on cardiac muscle cells. As such, cross-reactive binding of hNav1.7 antibodies to hNav1.5 could lead to heart failure. To assay the specificity of the mAbs derived from DNA immunization for hNav1.7, the corresponding loopA3 and loopB1-C1-D1 sequences of hNav1.5 were cloned as llamaFc chimera and cross-reactivity was determined using a binding ELISA (FIG. 8). All clones, except clone 9A6 and 9H4, show no cross-reactivity to hNav1.5. In addition, cross reactivity for hNav1.2 was tested for the loopA3-binding clones 8A7 and 8B6 using hNav1.2 and hNav1.7 derived monomeric, GST-tagged loopA3 peptides (Abnova, H00006326-Q01 (hNav1.2) and H00006335-Q01 (hNav1.7)). Again, no cross-reactive binding was observed.

[3] = target: T1, hNav1.7-loopA3-llama Fc fusion; assay: ELISA, coated loopA3-llama Fc 10 ng/well, mAb titrated
Procedure: In a next experiment, the binding affinity of the loop-specific mAbs was determined and compared to reference mAbs as described in US2011/0135662 (for loop A3: UCB_932, for loopB1-C1-D1: UCB_983, for loopC3: UCB_1066; US2011/0135662). Affinities were determined using an ELISA with a loop-coating of 10 ng/well (loopA3-llama Fc), 20 ng/well (loop-B1-C1-D1-llama Fc) or 50 ng/well (loopC3-llama Fc). The remainder of the experimental setup was identical to abovementioned binding ELISAs. Most of the mAbs show pM affinity for the respective hNav1.7 extracellular loop they are binding. […] The EC₅₀ for the reference mAbs could not be determined (nd) from the ELISA data available because the binding was too weak.

[4] = target: T5, GST-tagged hNav1.2-loopA3 (human, UniProt Q99250 273-362); assay: binding ELISA on coated GST-tagged hNav1.2 loop A3 peptide, OD620
T5 construct: bought (Abnova); monomeric; also called hNav1.2 derived monomeric GST-tagged loopA3 peptide; Abnova H00006326-Q01; not shown: GST tag
Description: as §1

T5 sequence (Q99250 273-362 limits assumed): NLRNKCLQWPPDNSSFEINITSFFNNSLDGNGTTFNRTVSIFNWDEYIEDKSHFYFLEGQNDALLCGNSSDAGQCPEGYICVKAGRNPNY

B1: 8A7 (antibody, human IgG1, V domains shown)
VH: EVQVQESGPGLVTPSQTLSLTCTVSGGSIKNNYYYWNWIRQPPGKGLEWMGAIAYSGSTYYSPSLQSRTSISRDTSKNQFTLQLSSVTPEDTAVYYCARVPSVFGLPYGGMNYWGKGTLVTVSS
VL: SYELTQSPSVTVALRQTAKITCGGSRIGSKSVQWYQQKPGQVPVLVIYADNRRPSRIPERFSGSNSGNTATLIISGAQAEDEADYYCQVWDSSAAVFGGGTHLTVLG
notes: also called mAb 8A7
[1]
  EC50 (read off the curve): ~0.08 nM
Mouse A3 mut1
  binding result: no binding (tested: about 33 nM)
Mouse A3-llamaFc
  binding result: no binding (tested: about 33 nM)
[2]
  % inhibition of inward current following P02 voltage protocol, 10 µg/ml: 4%
  % inhibition of inward current following P02 voltage protocol, 25 µg/ml: 33.3%
  % inhibition of inward current following P02 voltage protocol, 100 µg/ml: 47.6%
hNav1.5-loopA3-llFc
  binding result: no binding (tested: about 66 ng/ml (axis as labelled))
[3]
  EC50: 0.23 nM
[4]
  binding result: no binding (tested: about 130 nM)
